Experimental data as given in patent US20240166737A1 (Janssen / Centocor, published 2024).
Numbering of substitutions follows the chain as printed. Names and notes keep the numbering of the source. Values belong to the binder of their own block, whether it stands above or below them.

Key:
[1] = target: T1, MSNW11, recombinant soluble (shed) MSLN lacking the C-terminal 7 AAs (human, UniProt Q13421 296-591); assay: H838 cell binding with shed MSLN (MSNW11) added
T1 construct: domain: soluble MSLN lacking the C-terminal 7 AAs; also called MSNW11.002; soluble MSLN
T1 sequence (Q13421 other isoform, or with tags, fused parts or gaps limits assumed): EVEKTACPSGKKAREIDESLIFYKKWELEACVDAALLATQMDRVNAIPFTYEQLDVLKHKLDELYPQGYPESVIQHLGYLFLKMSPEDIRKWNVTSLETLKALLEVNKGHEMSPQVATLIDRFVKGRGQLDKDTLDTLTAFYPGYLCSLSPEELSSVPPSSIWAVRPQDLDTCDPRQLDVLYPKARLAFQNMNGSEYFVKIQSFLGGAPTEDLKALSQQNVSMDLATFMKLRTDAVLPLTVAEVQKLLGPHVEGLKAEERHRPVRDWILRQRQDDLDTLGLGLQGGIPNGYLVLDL
From the text: Table 16 lists the immunization campaigns, antigens used, and number of clones returned at each stage of screening. Clones from which antibody sequences were successfully recovered were first screened for binding to recombinant full length human MSLN (MSNW10) and H838 cells that express MSLN on the cell surface. Binders were further screened for binding to cells in the presence of recombinant soluble MSLN lacking the C-terminal 7 AAs (MSNW11). This form of recombinant MSLN represented the product of cleavage at the closest cleavage site to the C-terminus known at the time, therefore, it theoretically represented the longest form of shed MSLN. The final concentration of shed MSLN in the assays was 100 nM.

[2] = target: T2, 11 AA stub (a.a. 293-303 of SEQ ID NO: 247) (human); assay: SPR, mAb captured, peptide injected
T2 peptide: VLDLSMQEALS
Procedure: (§1) The binding was assessed by SPR. Briefly, GAH-Fc was used to capture mAbs on C4 sensor chip followed by antigen injection starting at 30 nM (14 amino acid stub), 100 nM (10-13 amino acid stubs), or 1000 nM (7-9 amino acid stubs) progressing in a 3-fold dilution series in single cycle kinetics mode. HBSP+0.01% BSA was used in the assay.

[3] = target: T3, 10 AA stub (a.a. 294-303 of SEQ ID NO: 247) (human); assay: SPR, mAb captured, peptide injected
T3 peptide: LDLSMQEALS
Procedure: as §1

[4] = target: T4, 9 AA stub (a.a. 295-303 of SEQ ID NO: 247) (human); assay: SPR, mAb captured, peptide injected
T4 peptide: DLSMQEALS
Procedure: as §1

[5] = target: T5, 7 AA stub (a.a. 297-303 of SEQ ID NO: 247) (human); assay: SPR, mAb captured, peptide injected
T5 peptide: SMQEALS
Procedure: as §1

[6] = target: T6, 13 AA stub (a.a. 291-303 of SEQ ID NO: 247) (human); assay: SPR, mAb captured, peptide injected
T6 peptide: YLVLDLSMQEALS
Procedure: as §1

[7] = target: T7, 14 AA stub (a.a. 290-303 of SEQ ID NO: 247) (human); assay: SPR, mAb captured, peptide injected
T7 peptide: GYLVLDLSMQEALS
Procedure: as §1

[8] = target: T8, 8 AA stub (a.a. 296-303 of SEQ ID NO: 247) (human); assay: SPR, mAb captured, peptide injected
T8 construct: also called 8 AA Peptide; peptide of the last 8 C-terminal amino acids
T8 peptide: LSMQEALS
Procedure: as §1

[9] = target: T9, 12 AA stub region peptide LVLDLSMQEALS (human); assay: SPR, mAb captured, peptide injected
T9 construct: free N-terminus; also called 12 AA Peptide
T9 peptide: LVLDLSMQEALS
Procedure: as §1

[10] = target: T10, MSNW10, recombinant full length human MSLN (human, UniProt Q13421 296-598); assay: SPR, additional experiments
T10 construct: also called MSNW10.002; FL-MSLN
T10 sequence (Q13421 other isoform, or with tags, fused parts or gaps limits assumed): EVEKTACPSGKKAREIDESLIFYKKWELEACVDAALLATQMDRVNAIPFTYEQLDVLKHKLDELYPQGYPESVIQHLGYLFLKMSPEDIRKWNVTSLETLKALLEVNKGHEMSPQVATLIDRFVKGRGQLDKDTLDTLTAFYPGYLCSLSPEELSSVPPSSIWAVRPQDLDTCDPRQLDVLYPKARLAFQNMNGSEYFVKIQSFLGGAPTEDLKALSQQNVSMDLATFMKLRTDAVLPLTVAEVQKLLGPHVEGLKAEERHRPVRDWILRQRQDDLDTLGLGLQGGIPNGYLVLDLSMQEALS

[11] = target: T10, MSNW10, recombinant full length human …; assay: SPR, recombinant full-length human MSLN
[12] = target: T8, 8 AA stub (a.a. 296-303 of SEQ ID NO: …); assay: competition of OVCAR8 cell binding by the peptide
[13] = target: T11, human MSLN on the cell surface (human, UniProt Q13421 296-598); assay: high content imaging, surface staining of OVCAR8 cells
T11 construct: on cells stands the processed GPI-anchored 40 kDa MSLN; also called membrane MSLN; MSLN on H838, OVCAR-8 (OVCAR8), OVCAR-8 K1/C8, SK-OV-3 cells
Procedure: OVCAR8 cells were cultured in RPMI 1640 medium supplemented with 10% FCS, 1% L-glutamine and 1% Gentamycin and seeded in Greiner CELLSTAR plate one day before experiment. 24 h after seeding, antibody mixture was prepared by diluting MSLN and control antibodies in Table 21 in full media containing CellMask™ Deep Red Plasma Membrane Stain (ThermoFisher, C10046) in 12 concentrations each with 3 folds dilution starting from 20 μg/ml and 20 μl of which were added directly to the cells in 20 μl. Antibodies were allowed for binding to the cell surface for 2h inside the incubator (37°) C. and the surface bound antibodies were fixed for 15 min at RT by directly adding 30 ul of 10% Formaldehyde (04018-1, Polysciences). Afterwards residual Formaldehyde was removed by washing the cells twice with PBS and the primary antibodies were stained with secondary antibodies (Alexa Fluor 488 goat anti-human IgG, Invitrogen, A11013) complemented with Hoechst 33342 (H3570, ThermoFisher) and HCS CellMask™ Deep Red Stain (ThermoFisher, H32721) in PBS for 1h at RT. After removing unbound antibodies and other dyes by washing the cells 3 times with PBS cells were imaged on the CellVoyager 7000 (Yokogawa, Tokyo, Japan) using a 40×/0.95 objective. Of each well, 9 fields were imaged. Image analysis was performed with Acapella (PerkinElmer, Waltham, MA, USA) and the results stored in Phaedra (OpenAnalytics, Antwerp, Belgium). Data analysis was done in R (www.r-project.org).
The data was then fitted using the four-parameter logistic using least-squares regression, keeping the lower boundary fixed at 0.

[14] = target: T9, 12 AA stub region peptide LVLDLSMQEALS; assay: SPR
[15] = target: T12, CD3 epsilon on human T-cells (human, UniProt P07766 23-207); assay: cell-based or functional assay
T12 sequence (P07766 23-207 limits assumed): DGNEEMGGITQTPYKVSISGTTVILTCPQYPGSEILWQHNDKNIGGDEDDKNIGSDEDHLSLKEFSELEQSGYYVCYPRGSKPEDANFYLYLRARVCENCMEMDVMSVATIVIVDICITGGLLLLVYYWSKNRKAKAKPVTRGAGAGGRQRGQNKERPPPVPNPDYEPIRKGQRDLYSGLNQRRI

[16] = target: T12, CD3 epsilon on human T-cells; assay: T cell binding
[17] = target: T12, CD3 epsilon on human T-cells; assay: T-cell binding assay, FIG. 15

binding result [1]: no binding (tested: 100 nM) | binding result [2]: no binding (tested: 100 nM) | binding result [3]: no binding (tested: 100 nM) | binding result [4]: no binding (tested: 1000 nM) | binding result [5]: no binding (tested: 1000 nM) | Kd [6]: 1.08 nM | Kd [7]: 0.563 nM | binding result [8]: no binding (tested: 1000 nM) | Kd [9]: 2.04 nM | Kd [10]: 0.3 nM
B1: MSLNB591 (antibody, V domains shown)
VH: QVQLQQSGPGLVKPSQTLSLTCGISGDSVSSSSVAWNWIRQSPSRGLEWLGRTYYRSKWYNDYAISVRSRVTINPDTSKNQFSLQLNSVTPEDTAVYYCSRGVVGALDYWGQGTLVTVSS
VL: DIVMTQSPLSLTVTPGEPASISCRSSQSLLFTNGYNSLDWYLQKPGQSPQFLIYLVSNRASGVPDRFSGSGSGTDFTLKISRVEAEDVGVYYCMQALRTPYTFGQGTKVDIK
notes: mAb; also called MSNB591

binding result [1]: no binding (tested: 100 nM) | Kd [11]: 3.7 nM
B2: MSNB133 (antibody, V domains shown)
VH: QVQLQQSGPGLVKPSQTLSLTCAISGDSVSSNRVAWNWIRQSPSRGLEWLGRTYYRSKWYNDFALSVKSRININADTSKSQFSLQLNSVTPEDTAVYYCARGIVGALDYWGQGTTVTVSS
VL: B1 VL with T12P, T32S, F51L, V56G, G71E, R98Q, Y101F, Q105P, V109L, D110E
notes: mAb

binding result [1]: no binding (tested: 100 nM) | binding result [12]: no binding | Kd [11]: 3.6 nM | binding result [2]: no binding (tested: 100 nM) | binding result [3]: no binding (tested: 100 nM) | binding result [4]: no binding (tested: 1000 nM) | binding result [5]: no binding (tested: 1000 nM) | Kd [6]: 4.37 nM | Kd [7]: 3.67 nM | Kd [9]: 7.97 nM | IC50 [13]: 0.0728 µg/mL | Maximum Value (arbitrary units) [13]: 1.39e+07 arbitrary units
B3: MSLNB570 (antibody, V domains shown)
VH: B1 VH with G23A, S32T, R45G, I65L, R68K, V71M, S78A, K79S, V103I
VL: B1 VL with S7T, T12P, E17G, L30M, F31Y, T32S, S37H, Y54H, V56G, A60V
notes: mAb; also called MSNB570

binding result [1]: no binding (tested: 100 nM) | Kd [11]: 3.5 nM
B4: MSNB459 (antibody, V domains shown)
VH: B1 VH with Q1E, Q5V, G23A, S32N, I65L, R68K, V71I, S100A, L107V
VL: B1 VL with T12P, S28N, F31Y, T32S, F51L, V56G, A96G, Y101L, Q105G, D110E
notes: mAb

binding result [1]: no binding (tested: 100 nM) | Kd [10]: 0.9 nM
B5: MSLNB592 (antibody, V domains shown)
VH: B1 VH with G23A, S32T, R45G, I65L, R68K, V71M, S78A, K79S, V103I
VL: B1 VL with T12P, L30M, F31Y, T32S, S37H, Y54H, V56G, D110E
notes: mAb; also called MSNB592

binding result [1]: no binding (tested: 100 nM) | Kd [11]: 1.8 nM | binding result [14]: binds | IC50 [13]: 0.0735 µg/mL | Maximum Value (arbitrary units) [13]: 1.46e+07 arbitrary units
B6: MSLNB571 (antibody, V domains shown)
VH: B1 VH with G23A, S32T, R45G, T53I, I65L, R68K, V71M, S78A, K79S, V103I
VL: B1 VL with S7T, T12P, E17G, L30M, F31Y, T32S, S37H, Y54H, V56G, A60V
notes: mAb; also called MSNB571

binding result [1]: no binding (tested: 100 nM) | Kd [10]: 1.2 nM
B7: MSLNB590 (antibody, V domains shown)
VH: QVQLQQSGPGLVKPSQTLSLTCAISGDSVSSTRAAWNWIRQSPSRGLEWLGRTYYRSKWYNDYTVSVKSRITINPDTSKNQFSLHLNSVTPEDSAVYFCARGNVGRVDFWGQGTLVTVSS
VL: EIVMTQSPLSLPVTPGEPASISCRSSQSLLHSDGYNYLDWYLQKPGQSPQLLIYLGSNRASGVPDRFSGSGSDTDFTLKISRVEAEDVGVYYCMQGLRTPLTFGPGTKLEIK
notes: mAb; also called MSNB590

B8: MNC3B199 (bispecific antibody, V domains shown, not shown: a dimerising Fc or GST; small tags and cut ends)
VH 1: QVQLVESGPGQVKPSQTLSLTCAISGDSVSSNSAAWNWIRQSPSRGLEWLGRTYYRSKWYNDYAVSVKSRITINPDTSKNQFSLQLNSVTPEDTAVYYCARRDYSSGGFDYWGQGTTVTVSS
VL 1: not shown
VH 2: QVQLVQSGAEVKKPGSSVKVSCKASGYTFTRSTMHWVKQAPGQGLEWMGYINPSSAYTNYNQKFQGRVTLTADKSTSTAYMELSSLRSEDTAVYYCASPQVHYDYAGFPYWGQGTLVTVSS
VL 2: EIVLTQSPATLSASPGERVTLSCSASSSVSYMNWYQQKPGQAPRRLIYDSSKLASGVPARFSGSGSGRDYTLTISSLEPEDFAVYYCQQWSRNPPTFGGGTKVEIK
AC90 [nM], cytotoxicity, 1:1 E:T, 72 hours [15]: 7.32 nM | Max. Activity, cytotoxicity, 1:1 E:T, 72 hours [15]: 85% | qAC50 [nM], cytotoxicity, 1:1 E:T, 72 hours [15]: 1.19 nM

EC50 [16]: 50 to 100 nM
B9: CD3B2030-N106A (scFv, V domains shown)
VH: B8 VH 2 with M48I
VL: B8 VL 2 with L46W

EC50 [17]: 44 nM
B10: CD3W245 HL formatted in the 2+1 format (bispecific antibody)
scFv: EVQLVESGGGLVKPGGSLRLSCAASGFTFSRYNMNWVRQAPGKGLEWVSSISTSSNYIYYADSVKGRFTFSRDNAKNSLDLQMSGLRAEDTAIYYCTRGWGPFDYWGQGTLVTVSSGGSEGKSSGSGSESKSTGGSDIQMTQSPSSLSASVGDRVTITCRARQSIGTAIHWYQQKPGKAPKLLIKYASESISGVPSRFSGSGSGTDFTLTISSLQPEDFATYYCQQSGSWPYTFGQGTKLEIK
VH: B8 VH 1
VL: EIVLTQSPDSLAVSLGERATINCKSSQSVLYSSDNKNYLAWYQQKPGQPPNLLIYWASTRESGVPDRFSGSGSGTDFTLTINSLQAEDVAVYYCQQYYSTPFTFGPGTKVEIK
notes: two MSLN targeting (MSNB457) Fabs and one CD3 scFv set between Fab and Fc of one heavy chain; also called CD3W245 HL 2+1

EC50 [17]: 2 nM
B11: MNC3B187 (bispecific antibody)
scFv: B10 scFv
VH: B8 VH 1
VL: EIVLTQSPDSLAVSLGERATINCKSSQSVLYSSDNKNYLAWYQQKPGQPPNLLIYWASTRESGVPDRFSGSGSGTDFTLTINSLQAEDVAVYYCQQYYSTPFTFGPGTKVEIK
notes: Bipod: MSNB457 Fab x CD3W245 HL scFv-Fc; also called CD3W245 HL containing Bipod
AC90 [nM], cytotoxicity, 1:1 E:T, 72 hours [15]: 0.016 nM | Max. Activity, cytotoxicity, 1:1 E:T, 72 hours [15]: 88% | qAC50 [nM], cytotoxicity, 1:1 E:T, 72 hours [15]: 0.0035 nM

EC50 [16]: 50 to 100 nM
B12: CD3B2051-N106A (scFv, V domains shown)
VH: B8 VH 2
VL: B8 VL 2
notes: CD3 targeting scFv
